In patent US6348311B1, “ATM kinase modulation for screening and therapies” (St. Jude Childre's Research Hospital, priority 1999, dated 2002):
Where no end group is shown, it is not given here.

Tests used:
Type in all cases: biochemical
[1] = molecular target: T1, ATM kinase (Homo sapiens, UniProt Q13315); assay: In vitro kinase assay, ATM with GST-peptide / GST-fusion substrates; settings: for phosphorylation of GST-peptide substrate by ATM (in words): GST-conjugated 14 amino acid peptides; for Relative Phosphorylation (%) ATM: GST-peptide substrate, relative to the p53ser15 site; for phosphorylation by ATM in vitro (in words): larger GST-fusion fragments or full-length proteins as substrates;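 for all read-outs here: immunoprecipitated ATM incubated with [γ-32P]ATP at 30 °C for 20 min, substrates resolved by SDS-PAGE and radiolabel incorporation quantified by PhosphorImager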
T1 construct: The full-length cDNA encoding NH2-terminal, FLAG-tagged wild-type ATM; made in house; host or cells: 293T cells, transient transfection with pcDNA-FLAG-ATMwt, anti-FLAG M2 immunoprecipitate on beads

[2] = molecular target: T2, ATR (Homo sapiens, UniProt Q13535); assay: In vitro kinase assay, ATR with GST-peptide / GST-fusion substrates; settings: for Relative Phosphorylation (%) ATR: GST-peptide substrate, relative to the p53ser15 site; for phosphorylation by ATR in vitro (in words): larger GST-fusion fragments or full-length proteins as substrates
T2 construct: made in house; host or cells: 293T cells, transient transfection with pBJF-FRPwt, anti-FLAG M2 immunoprecipitate
Experimental: (§1) FIGS. 1A, 1B, and 1C. Phosphorylation of GST-p53 mutant peptides (amino acids 9-21) by ATM, ATR, and DNA-PK in vitro. In vitro kinase assays with immunoprecipitated, transfected flag-tagged ATM (A) or ATR (B) or purified DNA-PK (C) were performed with GST-p53 peptides containing the amino acid substitutions indicated. The amount of 32P-labeled GST-peptides was quantitated with a PhosphorImager and was normalized for each of the kinases to the level of phosphorylation of wild-type GST-p53.
(§2) FIGS. 2A, 2B, and 2C. Phosphorylation of candidate targets of by ATM, ATR and DNA-PK in vitro. GST-peptides containing the putative target sequences were used as substrates for the kinase assay.
Transfection and Kinase Activity Assays. 293T cells were transiently transfected with 10 μg of either pcDNA-FLAG-ATMwt, pcDNA-FLAG-ATMkd, pBJF-FRPwt or pBJF-FRPkd (Cliby et al., EMBO J., 17:159, 1998) using calcium phosphate and harvested two days later. Cells were lysed through sonication in TGN buffer [50 mM Tris (pH 7.5), 50 mM glycerophosphate, 150 mM NaCl, 10% glycerol, 1% Tween 20, 1 mM NaF, 1 mM NaVO4, 1 mM PMSF, […] Pepstatin A, 5 μg/ml leupeptin, 10 μg/ml Aprotinin and 1 mM DTT] as described (Brunn et al., Science, 277:99-101,1997). After centrifugation at 13,000 ×g, 2 mg of extract were incubated with mouse IgG and protein A/G sepharose beads (Calbiochem). FLAG-tagged proteins were then immunoprecipitated with anti-FLAG M2 monoclonal antibody (Eastman Kodak Company) and protein A/G sepharose beads. Immunoprecipitates were washed twice with TGN buffer, once with 100 mM Tris (pH 7.5) plus 0.5 M LiCl, and twice with kinase buffer [10 mM Hepes (pH 7.5), 50 mM glycerophosphate, 50 mM NaCl, 10 mM MgCl2, 10 mM MnCl2, 5 μM ATP, and 1 mM DTT]. Kinase reactions were initiated by resuspending washed beads in 30 μl of kinase buffer containing 10 μCi [γ-^32P]ATP and 1 μg GSTp531-101 and incubated for 30 minutes at 30° C. Proteins were electrophoretically separated by SDS-polyacrylamide gel electrophoresis, transferred to nitrocellulose, and analyzed on a PhosphorImager. FLAG-tagged proteins and GSTp531-101 were subjected to immunoblotting with either anti-FLAG M2 antibody or monoclonal antibodies directed towards the NH2-terminus of p53 (Ab-2 and Ab-6, Calbiochem) as described (Siliciano et al., Genes Dev., 11:3471, 1997).
Phosphorylation of Ser^15 of p53 by ATM and ATR/FRP1 in vitro. […] Proteins from each reaction were separated by SDS polyacrylamide gel electrophoresis (7% gel), transferred to nitrocellulose, and analyzed either on a PhosphorImager or by immunoblotting. Amounts of FLAG-tagged ATM or ATR in each kinase reaction were measured by immunoblotting with anti-FLAG M2 (top panel) and amount of [γ^32P]phosphate incorporated into ATM or ATR during the reaction (lower panel). […] An upper immunoreactive band represents phosphorylated GSTp53 fusion protein. The same exposures were used for ATM, ATR/FRP1 and corresponding substrate proteins.
(§3) Plasmids and GST-fusion protein production. For GST fusion peptide expression vectors, complementary oligonucleotides encoding desired peptides (14 amino acids) were cloned into the BamHI/SmaI site of pGEX-2T (Pharmacia). The constructs were confirmed by restriction enzyme digests and DNA sequencing. To construct the larger GST-p95 (327-391) protein fragment, p95 DNA encoding amino acids 327-391 was amplified by PCR with Pfu polymerase using the following primers: 5′ sense,
In vitro kinase assays and immunoprecipitation. […] Cleared supernatants were immunoprecipitated with anti-Flag M2 antibody and protein A/G agarose, the beads were washed with TGN buffer followed by TGN buffer plus 0.5 M LiCl, and two washes with kinase buffer [20 mM HEPES (pH 7.5), 50 mM NaCl, 10 mM MgCl2, 1 mM dithiothreitol (DTT) and 10 mM MnCl2]. […] ATP and […] of GST-fusion substrate (GST-p53:1-101), in varying concentration of Mn^2+. […]

[3] = molecular target: DNA-PK (Homo sapiens, UniProt P78527); assay: In vitro kinase assay, purified DNA-PK with GST-peptide / GST-fusion substrates; settings: for Relative Phosphorylation (%) DNA-PK: GST-peptide substrate, relative to the p53ser15 site
Experimental: as §1, §2, §3
In vitro kinase assays and immunoprecipitation. […] Cleared supernatants were immunoprecipitated with anti-Flag M2 antibody and protein A/G agarose, the beads were washed with TGN buffer followed by TGN buffer plus 0.5 M LiCl, and two washes with kinase buffer [20 mM HEPES (pH 7.5), 50 mM NaCl, 10 mM MgCl2, 1 mM dithiothreitol (DTT) and 10 mM MnCl2]. […] ATP and […] of GST-fusion substrate (GST-p53:1-101), in varying concentration of Mn^2+. The kinase reaction was conducted at 30° C. for 20 min and stopped by the addition of SDS-PAGE loading buffer. Proteins were separated on SDS-polyacrylamide gel electrophoresis (SDS-PAGE) and transferred to nitrocellulose. Radiolabeled proteins were visualized and quantitated on a Phosphorimager (Molecular Dynamics). Use of equivalent amounts of flag-tagged ATM or ATR in the different lanes was confirmed by immunoblotting with anti-flag antibody. In some reactions, either supercoiled DNA (pBluescript II KS, Stratagene) or linearized DNA (pBluescript II KS cut with EcoR1) was added ([…]). For endogenous ATM kinase reactions, endogenous ATM was immunoprecipitated from GM0536 lymphhoblasts with ATM monoclonal antibody (D16.11) in M buffer (PBS, 10% glycerol, 0.2% Tween 20, 0.3% NP-40, 1 mM NaF, 1 mM Na3VO4, 1 mM PMSF, 1x protease inhibitor mixture]. After washing with M buffer and kinase buffer, in vitro kinase reactions were carried out according to procedures described above. The DNA-PK in vitro kinase reaction was performed as previously described (Gottlieb and Jackson, 1993), using 20 ng each of DNA-PKcs or DNA-PK (20 ng DNA-PKcs premixed with 20 ng Ku 70/80).

T1 sequence (Q13315 whole entry, the tested form may be a part): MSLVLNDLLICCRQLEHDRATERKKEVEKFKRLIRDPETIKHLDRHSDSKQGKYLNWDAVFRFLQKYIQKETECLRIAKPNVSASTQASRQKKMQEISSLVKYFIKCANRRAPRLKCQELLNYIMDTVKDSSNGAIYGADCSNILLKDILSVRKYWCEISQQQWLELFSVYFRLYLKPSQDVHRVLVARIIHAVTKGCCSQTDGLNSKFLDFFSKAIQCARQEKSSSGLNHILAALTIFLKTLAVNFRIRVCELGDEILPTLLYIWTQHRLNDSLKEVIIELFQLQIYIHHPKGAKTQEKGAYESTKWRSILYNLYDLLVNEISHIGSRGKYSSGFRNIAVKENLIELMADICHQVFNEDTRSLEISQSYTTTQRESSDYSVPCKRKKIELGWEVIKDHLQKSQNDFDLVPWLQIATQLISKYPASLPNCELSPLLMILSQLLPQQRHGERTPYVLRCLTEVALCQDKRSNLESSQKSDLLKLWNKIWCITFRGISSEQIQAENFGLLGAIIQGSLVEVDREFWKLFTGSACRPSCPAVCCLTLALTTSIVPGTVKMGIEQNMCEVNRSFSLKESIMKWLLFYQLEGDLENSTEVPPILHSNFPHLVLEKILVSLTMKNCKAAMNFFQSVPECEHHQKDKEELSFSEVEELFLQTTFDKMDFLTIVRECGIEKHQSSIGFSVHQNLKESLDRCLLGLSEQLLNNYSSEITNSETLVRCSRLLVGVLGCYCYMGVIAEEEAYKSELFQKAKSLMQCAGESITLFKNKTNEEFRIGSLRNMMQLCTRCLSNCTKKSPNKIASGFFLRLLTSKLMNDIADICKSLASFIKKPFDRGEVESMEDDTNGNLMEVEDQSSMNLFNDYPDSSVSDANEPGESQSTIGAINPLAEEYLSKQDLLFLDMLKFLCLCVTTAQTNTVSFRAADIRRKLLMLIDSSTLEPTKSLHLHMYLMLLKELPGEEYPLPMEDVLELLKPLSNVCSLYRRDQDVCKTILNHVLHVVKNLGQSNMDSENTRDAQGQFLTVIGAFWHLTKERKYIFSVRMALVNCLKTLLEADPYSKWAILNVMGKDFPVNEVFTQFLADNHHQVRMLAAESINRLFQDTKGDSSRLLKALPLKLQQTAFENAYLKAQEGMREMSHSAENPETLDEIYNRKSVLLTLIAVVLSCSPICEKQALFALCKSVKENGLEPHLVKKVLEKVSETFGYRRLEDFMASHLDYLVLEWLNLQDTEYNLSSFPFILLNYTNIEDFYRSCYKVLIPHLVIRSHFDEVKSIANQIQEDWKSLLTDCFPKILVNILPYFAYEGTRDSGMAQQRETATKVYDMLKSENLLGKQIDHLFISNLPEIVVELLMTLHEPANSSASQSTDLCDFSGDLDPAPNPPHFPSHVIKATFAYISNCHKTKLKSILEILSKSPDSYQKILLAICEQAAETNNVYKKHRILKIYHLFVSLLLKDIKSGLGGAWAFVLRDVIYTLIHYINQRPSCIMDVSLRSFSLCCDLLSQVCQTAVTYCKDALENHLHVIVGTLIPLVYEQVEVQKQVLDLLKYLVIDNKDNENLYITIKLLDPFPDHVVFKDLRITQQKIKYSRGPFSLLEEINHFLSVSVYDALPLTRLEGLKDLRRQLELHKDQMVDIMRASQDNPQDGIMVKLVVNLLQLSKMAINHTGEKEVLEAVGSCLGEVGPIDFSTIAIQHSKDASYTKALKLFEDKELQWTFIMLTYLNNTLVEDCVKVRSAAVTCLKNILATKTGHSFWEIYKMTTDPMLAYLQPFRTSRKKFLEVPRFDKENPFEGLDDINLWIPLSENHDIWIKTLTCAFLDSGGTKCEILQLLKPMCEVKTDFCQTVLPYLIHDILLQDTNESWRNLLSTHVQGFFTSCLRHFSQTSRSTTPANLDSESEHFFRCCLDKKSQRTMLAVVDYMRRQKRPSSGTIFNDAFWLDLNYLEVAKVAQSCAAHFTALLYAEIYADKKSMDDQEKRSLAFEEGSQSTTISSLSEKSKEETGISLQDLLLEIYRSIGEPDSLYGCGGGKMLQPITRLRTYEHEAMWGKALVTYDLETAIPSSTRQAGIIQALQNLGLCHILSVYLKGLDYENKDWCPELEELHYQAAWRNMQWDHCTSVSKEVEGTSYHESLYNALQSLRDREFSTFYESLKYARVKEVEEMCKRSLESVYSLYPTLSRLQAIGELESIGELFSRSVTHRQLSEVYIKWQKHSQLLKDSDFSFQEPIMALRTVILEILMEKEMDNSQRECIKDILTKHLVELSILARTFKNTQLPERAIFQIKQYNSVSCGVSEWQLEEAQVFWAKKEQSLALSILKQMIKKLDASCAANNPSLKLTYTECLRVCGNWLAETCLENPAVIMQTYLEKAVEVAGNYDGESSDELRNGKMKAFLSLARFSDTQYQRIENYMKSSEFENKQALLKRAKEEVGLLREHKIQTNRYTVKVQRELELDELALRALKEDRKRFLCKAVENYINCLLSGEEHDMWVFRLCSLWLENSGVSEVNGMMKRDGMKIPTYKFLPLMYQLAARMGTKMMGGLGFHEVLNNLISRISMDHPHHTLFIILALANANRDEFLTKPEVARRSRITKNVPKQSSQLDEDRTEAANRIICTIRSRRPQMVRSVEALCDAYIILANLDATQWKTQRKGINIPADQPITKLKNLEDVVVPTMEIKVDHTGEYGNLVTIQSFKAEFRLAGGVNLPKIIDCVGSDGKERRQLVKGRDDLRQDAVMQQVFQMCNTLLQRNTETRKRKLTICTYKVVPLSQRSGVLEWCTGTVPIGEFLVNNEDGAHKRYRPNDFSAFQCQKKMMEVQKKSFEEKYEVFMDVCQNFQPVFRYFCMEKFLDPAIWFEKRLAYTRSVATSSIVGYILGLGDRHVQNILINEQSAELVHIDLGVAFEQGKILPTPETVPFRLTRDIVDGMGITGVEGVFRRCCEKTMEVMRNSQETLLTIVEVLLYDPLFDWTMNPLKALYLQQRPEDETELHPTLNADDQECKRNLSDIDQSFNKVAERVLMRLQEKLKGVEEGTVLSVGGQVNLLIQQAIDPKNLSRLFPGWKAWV

## 4EBP1 (Phas I): GST-peptide EPPMEASQSHLRNS (SEQ ID NO:9), S94 (also: GST fusion)
[1]
  phosphorylation of GST-peptide substrate by ATM (in words): excellent in vitro substrate
  Relative Phosphorylation (%) ATM: 78%
[2]
  Relative Phosphorylation (%) ATR: 66%
[3]
  Relative Phosphorylation (%) DNA-PK: 10%

## [Mn+2] [Mn^2+]
[1]; endogenous ATM immunoprecipitated under mild conditions
  effect of addition on activity of endogenous ATM: dependent
[1]; transfected flag-tagged ATM, GST-p53 (1-101) substrate
  effect of addition on ATM kinase activity: dependent
[2]; transfected flag-tagged ATR, GST-p53 (1-101) substrate
  effect of addition on ATR kinase activity: dependent
[3]; purified DNA-PK, GST-p53 (1-101) substrate
  effect of addition on DNA-PK activity: not altered

## ATM S440: GST-peptide PLLMILSQLLPQQR (SEQ ID NO:24), S440 of ATM (also: GST fusion)
[1]
  Relative Phosphorylation (%) ATM: 33%
[2]
  Relative Phosphorylation (%) ATR: 55%
[3]
  Relative Phosphorylation (%) DNA-PK: 7%

## ATM S2761: GST-peptide YKVVPLSQRSGVLE (SEQ ID NO:25), S2761 of ATM (also: GST fusion)
[1]
  Relative Phosphorylation (%) ATM: 3%
[2]
  Relative Phosphorylation (%) ATR: 22%
[3]
  Relative Phosphorylation (%) DNA-PK: <1%

## BRCA1 (SQ1): GST-peptide SASLFSSQCSELED (SEQ ID NO:32), S1298 (also: GST fusion)
[1]
  Relative Phosphorylation (%) ATM: 2%
[2]
  Relative Phosphorylation (%) ATR: 38%
[3]
  Relative Phosphorylation (%) DNA-PK: 6%

## BRCA1 (SQ2): GST-peptide DCSGLSSQSDILTT (SEQ ID NO:33), S1387 (also: GST fusion)
[1]
  Relative Phosphorylation (%) ATM: 42%
[2]
  Relative Phosphorylation (%) ATR: 35%
[3]
  Relative Phosphorylation (%) DNA-PK: 36%

## BRCA1 (SQ3): GST-peptide SSEYPISQNPEGLS (SEQ ID NO:34), S1466 (also: GST fusion)
[1]
  Relative Phosphorylation (%) ATM: 8%
[2]
  Relative Phosphorylation (%) ATR: 33%
[3]
  Relative Phosphorylation (%) DNA-PK: 12%

## BRCA2: GST-peptide KVSPYLSQFQQDKQ (SEQ ID NO:29), S2156 (also: GST fusion)
[1]
  phosphorylation of GST-peptide substrate by ATM (in words): not by ATM
  Relative Phosphorylation (%) ATM: <1%
[2]; GST-conjugated 14 amino acid peptides
  phosphorylation of GST-peptide substrate by ATR (in words): phosphorylated by ATR
[2]
  Relative Phosphorylation (%) ATR: 132%
[3]
  Relative Phosphorylation (%) DNA-PK: <1%

## CHK1 (SQ1): GST-peptide NVKYSSSQPEPRTG (SEQ ID NO:16), S317 (also: GST fusion)
[1]
  Relative Phosphorylation (%) ATM: 14%
[2]
  Relative Phosphorylation (%) ATR: 58%
[3]
  Relative Phosphorylation (%) DNA-PK: 2%

## CHK1 (SQ2): GST-peptide VQGISFSQPTCPDH (SEQ ID NO:17), S345 (also: GST fusion)
[1]
  Relative Phosphorylation (%) ATM: 11%
[2]
  Relative Phosphorylation (%) ATR: 73%
[3]
  Relative Phosphorylation (%) DNA-PK: 20%

## CUT1: GST-peptide GASPVLSQGVDPRS (SEQ ID NO:36), S1615 (also: GST fusion)
[1]
  Relative Phosphorylation (%) ATM: 9%
[2]
  Relative Phosphorylation (%) ATR: 20%
[3]
  Relative Phosphorylation (%) DNA-PK: 5%

## CtIP: GST-peptide DPGADLSQYKMDVT (SEQ ID NO:44), S664 (also: GST fusion)
[1]
  Relative Phosphorylation (%) ATM: 12%
[2]
  Relative Phosphorylation (%) ATR: 12%
[3]
  Relative Phosphorylation (%) DNA-PK: 2%

## GST: glutathione S-transferase alone, control substrate [reference compound]
[1]
  phosphorylation by ATM in vitro (in words): did not phosphorylate

## MRE11 (SQ4): GST-peptide SASRGGSQRGRAFK (SEQ ID NO:14), S590 (also: GST fusion)
[1]
  Relative Phosphorylation (%) ATM: <1%

## MRE11 (SQ5): GST-peptide SSSKIMSQSQVSKG (SEQ ID NO:15), S648 (also: GST fusion)
[1]
  Relative Phosphorylation (%) ATM: <1%

## full-length WRN protein: purified recombinant full-length WRN protein
[1]
  phosphorylation by ATM in vitro (in words): not phosphorylated
[2]
  phosphorylation by ATR in vitro (in words): not phosphorylated

## wt p53: recombinant glutathione S-transferase-conjugated p53 protein containing the first 101 amino acids of p53
[1]
  phosphorylation by ATM in vitro (in words): phosphorylated
[2]; identical experimental conditions
  ATR/FRP-1 activity towards substrate, less than ATM: at least 20 fold

B1: GST-WRN (1099-1198): GST-linked WRN fragment, amino acids 1099-1198 (protein)
chain: STEKKSNLEKLYSYKPCDKISSGSNISKKSIMVQSPEKAYSSSQPVISAQEQETQIVLYGKLVEARQKHANKMDVPPAILATNKILVDMAKMRPTTVENV
modifications: left off: a dimerising Fc or GST
[1]
  phosphorylation by ATM in vitro (in words): not phosphorylated
[2]
  phosphorylation by ATR in vitro (in words): not phosphorylated

B2: GST-p95 (327-391): larger GST-p95 protein fragment, p95 amino acids 327-391, containing serine 343 (protein)
chain: GHPSTGLKTTTPGPSLSQGVSVDEKLMPSAPVNTTTYVADTESEQADTWDLSERPKEIKVSKMEQ
modifications: also: GST fusion
[1]
  phosphorylation by ATM in vitro (in words): excellent in vitro substrate

B3: PhasI/4E-BP1: full-length 4E-BP1 protein, translation regulator in insulin signaling (protein)
chain: SAGSSCSQTPSRAIPTRRVALGDGVQLPPGDYSTTPGGTLFSTTPGGTRIIYDRKFLMECRNSPVAKTPPKDLPTIPGVTSPTSDEPPMQASQSHLHSSPEDKRAGGEESQFEMDI
[1]
  phosphorylation by ATM in vitro (in words): good substrate
[1]; listed as full-length 4E-BP 1
  phosphorylation by ATM in vitro (in words): can phosphorylate
